# Laboratory results published in patent US20150344570A1 (published 2015).
# B1: GpH7-A5/GpH7-B3 variant P331_20W/GpL16-k0 (antibody, human IgG1, kappa)
# heavy 1: not shown
# heavy 2: not shown
# light: DIVMTQSPLSLPVTPGEPASISCQASESLVHSNRNTYLHWYLQKPGQSPQLLIYKVSNRFSGVPDRFSGSGSGTDFTLKISRVEAEDVGVYYCSQNTHVPPTFGQGTKVEIERTVAAPSVFIFPPSDEQLKSGTASVVCLLNNFYPREAKVQWKVDNALQSGNSQESVTEQDSKDSTYSLSSTLTLSKADYEKHKVYACEVTHQGLSSPVTKSFNRGEC
# notes: mutation in the GpH7-B3 chain only; also called He Ab
# B2: GpH7-A5/GpH7-B3 variant T335_18N/GpL16-k0 (antibody, human IgG1, kappa)
# heavy 1: not shown
# heavy 2: not shown
# light: B1 light
# notes: as for B1
# B3: GpH7-A5/GpH7-B3 variant S337_07I/GpL16-k0 (antibody, human IgG1, kappa)
# heavy 1: not shown
# heavy 2: not shown
# light: B1 light
# notes: as for B1
# B4: GpH7-A5/GpH7-B3 variant T335_04F/GpL16-k0 (antibody, human IgG1, kappa)
# heavy 1: not shown
# heavy 2: not shown
# light: B1 light
# notes: as for B1
# B5: GpH7-A5/GpH7-B3 variant S337_08L/GpL16-k0 (antibody, human IgG1, kappa)
# heavy 1: not shown
# heavy 2: not shown
# light: B1 light
# notes: as for B1
# B6: GpH7-A5/GpH7-B3 variant P331_16H/GpL16-k0 (antibody, human IgG1, kappa)
# heavy 1: not shown
# heavy 2: not shown
# light: B1 light
# notes: as for B1
# B7: GpH7-A5/GpH7-B3 variant L234_04F/GpL16-k0 (antibody, human IgG1, kappa)
# heavy 1: not shown
# heavy 2: not shown
# light: B1 light
# notes: also called He Ab
# B8: GpH7-A5/GpH7-B3 variant A330_16H/GpL16-k0 (antibody, human IgG1, kappa)
# heavy 1: not shown
# heavy 2: not shown
# light: B1 light
# notes: also called He Ab
# B9: GpH7-A5/GpH7-B3 variant E333_03V/GpL16-k0 (antibody, human IgG1, kappa)
# heavy 1: not shown
# heavy 2: not shown
# light: B1 light
# notes: also called He Ab
# B10: GpH7-A5/GpH7-B3 variant E333_09D/GpL16-k0 (antibody, human IgG1, kappa)
# heavy 1: not shown
# heavy 2: not shown
# light: B1 light
# notes: also called He Ab
# B11: GpH7-A5/GpH7-B3 variant A330_15Y/GpL16-k0 (antibody, human IgG1, kappa)
# heavy 1: not shown
# heavy 2: not shown
# light: B1 light
# notes: also called He Ab
# B12: GpH7-A5/GpH7-B3 variant I336_10E/GpL16-k0 (antibody, human IgG1, kappa)
# heavy 1: not shown
# heavy 2: not shown
# light: B1 light
# notes: also called He Ab
# B13: GpH7-A5/GpH7-B3 variant Q295_02A/GpL16-k0 (antibody, human IgG1, kappa)
# heavy 1: not shown
# heavy 2: not shown
# light: B1 light
# notes: also called He Ab
# B14: GpH7-A5/GpH7-B3 variant D270_10E/GpL16-k0 (antibody, human IgG1, kappa)
# heavy 1: not shown
# heavy 2: not shown
# light: B1 light
# notes: also called He Ab
# B15: GpH7-A5/GpH7-B3 variant A330_04F/GpL16-k0 (antibody, human IgG1, kappa)
# heavy 1: not shown
# heavy 2: not shown
# light: B1 light
# notes: also called He Ab
# B16: GpH7-A5/GpH7-B3 variant A330_06M/GpL16-k0 (antibody, human IgG1, kappa)
# heavy 1: not shown
# heavy 2: not shown
# light: B1 light
# notes: also called He Ab
# B17: GpH7-A5/GpH7-B3 variant E333_02A/GpL16-k0 (antibody, human IgG1, kappa)
# heavy 1: not shown
# heavy 2: not shown
# light: B1 light
# notes: also called He Ab
# B18: GpH7-A5/GpH7-B3 variant I336_02A/GpL16-k0 (antibody, human IgG1, kappa)
# heavy 1: not shown
# heavy 2: not shown
# light: B1 light
# notes: also called He Ab
# B19: GpH7-A5/GpH7-B3 variant A330_07I/GpL16-k0 (antibody, human IgG1, kappa)
# heavy 1: not shown
# heavy 2: not shown
# light: B1 light
# notes: also called He Ab
# B20: GpH7-A5/GpH7-B3 variant I336_13S/GpL16-k0 (antibody, human IgG1, kappa)
# heavy 1: not shown
# heavy 2: not shown
# light: B1 light
# notes: also called He Ab
# B21: GpH7-A5/GpH7-B3 variant E333_04F/GpL16-k0 (antibody, human IgG1, kappa)
# heavy 1: not shown
# heavy 2: not shown
# light: B1 light
# notes: also called He Ab
# B22: GpH7-A5/GpH7-B3 variant A330_20W/GpL16-k0 (antibody, human IgG1, kappa)
# heavy 1: not shown
# heavy 2: not shown
# light: B1 light
# notes: also called He Ab
# B23: GpH7-A5/GpH7-B3 variant I332_01G/GpL16-k0 (antibody, human IgG1, kappa)
# heavy 1: not shown
# heavy 2: not shown
# light: B1 light
# notes: also called He Ab
# B24: GpH7-A5/GpH7-B3 variant K334_09D/GpL16-k0 (antibody, human IgG1, kappa)
# heavy 1: not shown
# heavy 2: not shown
# light: B1 light
# notes: also called He Ab
# B25: GpH7-A5/GpH7-B3 variant I336_09D/GpL16-k0 (antibody, human IgG1, kappa)
# heavy 1: not shown
# heavy 2: not shown
# light: B1 light
# notes: also called He Ab
# B26: GpH7-A5/GpH7-B3 variant A330_08L/GpL16-k0 (antibody, human IgG1, kappa)
# heavy 1: not shown
# heavy 2: not shown
# light: B1 light
# notes: also called He Ab
# B27: GpH7-A5/GpH7-B3 variant I336_14T/GpL16-k0 (antibody, human IgG1, kappa)
# heavy 1: not shown
# heavy 2: not shown
# light: B1 light
# notes: also called He Ab
# B28: GpH7-A5/GpH7-B3 variant E333_20W/GpL16-k0 (antibody, human IgG1, kappa)
# heavy 1: not shown
# heavy 2: not shown
# light: B1 light
# notes: also called He Ab
# B29: GpH7-A5/GpH7-B3 variant E333_13S/GpL16-k0 (antibody, human IgG1, kappa)
# heavy 1: not shown
# heavy 2: not shown
# light: B1 light
# notes: also called He Ab
# B30: GpH7-A5/GpH7-B3 variant I332_13S/GpL16-k0 (antibody, human IgG1, kappa)
# heavy 1: not shown
# heavy 2: not shown
# light: B1 light
# notes: also called He Ab
# B31: GpH7-A5/GpH7-B3 variant S298_02A/GpL16-k0 (antibody, human IgG1, kappa)
# heavy 1: not shown
# heavy 2: not shown
# light: B1 light
# notes: also called He Ab; GpH7-A5/GpH7-B3-15-02A/GpL16-k0
# B32: GpH7-A5/GpH7-B3 variant Q295_14T/GpL16-k0 (antibody, human IgG1, kappa)
# heavy 1: not shown
# heavy 2: not shown
# light: B1 light
# notes: also called He Ab
# B33: GpH7-A5/GpH7-B3 variant K334_01G/GpL16-k0 (antibody, human IgG1, kappa)
# heavy 1: not shown
# heavy 2: not shown
# light: B1 light
# notes: also called He Ab
# B34: GpH7-A5/GpH7-B3 variant Q295_10E/GpL16-k0 (antibody, human IgG1, kappa)
# heavy 1: not shown
# heavy 2: not shown
# light: B1 light
# notes: also called He Ab
# B35: GpH7-A5/GpH7-B3 variant E333_16H/GpL16-k0 (antibody, human IgG1, kappa)
# heavy 1: not shown
# heavy 2: not shown
# light: B1 light
# notes: also called He Ab
# B36: GpH7-A5/GpH7-B3 variant I336_18N/GpL16-k0 (antibody, human IgG1, kappa)
# heavy 1: not shown
# heavy 2: not shown
# light: B1 light
# notes: also called He Ab
# B37: GpH7-A5/GpH7-B3 variant I336_03V/GpL16-k0 (antibody, human IgG1, kappa)
# heavy 1: not shown
# heavy 2: not shown
# light: B1 light
# notes: also called He Ab
# B38: GpH7-A5/GpH7-B3 variant I332_19Q/GpL16-k0 (antibody, human IgG1, kappa)
# heavy 1: not shown
# heavy 2: not shown
# light: B1 light
# notes: also called He Ab
# B39: GpH7-A5/GpH7-B3 variant A330_03V/GpL16-k0 (antibody, human IgG1, kappa)
# heavy 1: not shown
# heavy 2: not shown
# light: B1 light
# notes: also called He Ab
# Target: T1, FcγRIIb (human, UniProt P31994 43-217)
# T1 construct: extracellular domain; also called FcgRIIb; 2b
# T1 sequence (looked up): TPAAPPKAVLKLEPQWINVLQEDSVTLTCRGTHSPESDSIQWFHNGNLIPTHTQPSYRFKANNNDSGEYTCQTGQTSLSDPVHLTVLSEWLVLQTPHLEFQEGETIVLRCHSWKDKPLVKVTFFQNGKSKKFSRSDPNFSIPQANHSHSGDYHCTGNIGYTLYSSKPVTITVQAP
# Test: SPR (Biacore), relative binding
row,Binder,He/Con_2b
1,B1,111 % of GpH7-A5/GpH7-B3/GpL16-k0
2,B2,102 % of GpH7-A5/GpH7-B3/GpL16-k0
3,B3,104 % of GpH7-A5/GpH7-B3/GpL16-k0
4,B4,103 % of GpH7-A5/GpH7-B3/GpL16-k0
5,B5,100 % of GpH7-A5/GpH7-B3/GpL16-k0
6,B6,116 % of GpH7-A5/GpH7-B3/GpL16-k0

# Target: T2, FcγRIIIa (human, UniProt P08637 17-208)
# T2 construct: extracellular domain; also called FcgRIIIa; 3a
# Test: SPR (Biacore), relative binding
# T2 sequence (P08637 17-208): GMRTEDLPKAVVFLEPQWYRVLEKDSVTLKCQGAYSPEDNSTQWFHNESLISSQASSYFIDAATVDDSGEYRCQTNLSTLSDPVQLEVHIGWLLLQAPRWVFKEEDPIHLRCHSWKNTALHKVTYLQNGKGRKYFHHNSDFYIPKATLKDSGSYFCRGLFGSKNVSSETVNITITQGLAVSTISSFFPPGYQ
row,Binder,He/Con_3a
1,B1,78.6 % of GpH7-A5/GpH7-B3/GpL16-k0
2,B2,98.8 % of GpH7-A5/GpH7-B3/GpL16-k0
3,B3,94.8 % of GpH7-A5/GpH7-B3/GpL16-k0
4,B4,96 % of GpH7-A5/GpH7-B3/GpL16-k0
5,B5,96.9 % of GpH7-A5/GpH7-B3/GpL16-k0
6,B6,80.2 % of GpH7-A5/GpH7-B3/GpL16-k0

# Target: T3, FcγRIIIa extracellular domain with C-terminal His tag (human, UniProt P08637 17-208)
# T3 construct: extracellular domain; also called 3a; FcgRIIIa
# Test: SPR, binding relative to GpH7-A5/GpH7-B3/GpL16-k0 = 100
# Protocol: (§1) The heterodimerized antibodies He Abs in which one of the H chains was introduced with an alteration were assayed for their binding activities to each activating FcγR and inhibitory FcγR according to the method described in Example 4. […] The activating FcγRs in FIGS. 26, 27, 28, and 29 are FcγRIa, FcγRIIa (R), FcγRIIa (H), and FcγRIIIa, respectively.
# (§2) Analysis of interaction between objective antibody and the FcγR was carried out using Biacore T100 (GE Healthcare). HBS-EP+ (GE Healthcare) was used as the running buffer, and the measurement temperature was set to 25° C. Chips produced by immobilizing the antigen peptide by the amine coupling method to a Series S Sencor Chip CM5 (GE Healthcare), or alternatively, chips produced by allowing preliminarily biotinylated antigen peptides to interact with and immobilize onto a Series S Sensor Chip SA (certified) (GE Healthcare) were used. Antibodies of interest were captured onto an antigen peptide-immobilized chip, and allowed to interact to each FcγR diluted with running buffer. To regenerate and repeatedly use the chip, the antibodies captured on the chip were washed off by reacting 10 mM glycine-HCl, pH 1.5.
# T3 sequence (P08637 17-208): as above
row,Binder,He/Con_3a
1,B7,118 % of control
2,B8,104 % of control
3,B9,103 % of control
4,B10,112 % of control
5,B11,125 % of control
6,B12,119 % of control
7,B13,106 % of control
8,B14,123 % of control
9,B15,147 % of control
10,B16,142 % of control
11,B17,105 % of control
12,B18,111 % of control
13,B19,103 % of control
14,B20,102 % of control
15,B21,101 % of control
16,B22,104 % of control
17,B23,111 % of control

row,Binder,He/Con_3a
1,B24,160 % of control
2,B25,106 % of control
3,B26,124 % of control
4,B27,108 % of control
5,B28,101 % of control
6,B29,103 % of control
7,B30,104 % of control
8,B31,160 % of control
9,B32,115 % of control
10,B33,121 % of control
11,B34,100 % of control
12,B35,103 % of control
13,B36,104 % of control
14,B37,112 % of control
15,B38,110 % of control
16,B39,101 % of control

# Target: T4, FcγRIIb extracellular domain with C-terminal His tag (human, UniProt P31994 43-217)
# T4 construct: extracellular domain; also called 2b; FcgRIIb
# T4 sequence (looked up): T1 sequence (looked up)
# Test: as above
# Protocol: as §1, §2
row,Binder,He/Con_2b
1,B7,99.8 % of control
2,B8,87.6 % of control
3,B9,93.2 % of control
4,B10,94.3 % of control
5,B11,95 % of control
6,B12,89.8 % of control
7,B13,79.7 % of control
8,B14,76.5 % of control
9,B15,92.8 % of control
10,B16,80.5 % of control
11,B17,83.8 % of control
12,B18,84.9 % of control
13,B19,67.1 % of control
14,B20,83.7 % of control
15,B21,94.6 % of control
16,B22,76.1 % of control
17,B23,87.1 % of control

row,Binder,He/Con_2b
1,B24,94.8 % of control
2,B25,92.1 % of control
3,B26,70.5 % of control
4,B27,89.5 % of control
5,B28,89.5 % of control
6,B29,81.8 % of control
7,B30,98.4 % of control
8,B31,73.4 % of control
9,B32,66.8 % of control
10,B33,92.5 % of control
11,B34,94.8 % of control
12,B35,83.3 % of control
13,B36,97.6 % of control
14,B37,90.3 % of control
15,B38,94.3 % of control
16,B39,52.4 % of control
